# Assay results reported in patent publication US7923535B2, “Tryptophan as a functional replacement for ADP-ribose-arginine in recombinant proteins” (The United States of America as represented by the …, priority 2002, dated 2011).
# Experiments:
# HNP-1 = target: T1, HNP-1 (Homo sapiens, UniProt P59665); assay: Blocking of HNP-1 cytotoxic activity (radial diffusion and chromium release assays after pre-incubation with HNP-1); type: cell-based; details: pre-incubated 1 hour at 37° C. with HNP-1 (100 nM, E. coli; 12 μM, chromium release)
# T1 sequence (P59665 65-94 limits assumed): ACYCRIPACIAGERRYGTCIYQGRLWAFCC
# Protocol: HNP-1 (100 nM) is incubated for 1 hour at 37° C. with ADP-ribosylated HNP-1, or HNP-1 with either an R:W substitution or an R:F substitution (0-800 nM) before the initiation of the cytotoxicity assay on E. coli.
# HNP-1 (12 μM) is incubated with ADP-ribosyl-HNP-1, or HNP-1 with either an R:W substitution or an R:F substitution (1.5-12 μM) for 1 hour at 37° C. before the initiation of the chromium release assay.
# [1] = tested on: Escherichia coli ATCC43827; details: compared with unmodified HNP-1; see PCT/US03/04649; cited from earlier work
# A549 cells [2] = assay: IL-8 production by A549 cells (indirect ELISA); type: cell-based; details: concentrations of 0.75 and 1.5 μM; 12 or 24 hours; compared with the unmodified peptide
# Protocol: […] Culture medium is sampled after 12 or 24 hours of incubation and IL-8 content is assayed by indirect ELISA according to the manufacturer's instructions (R & D System Inc. Minneapolis, Minn.).
# CD3^+ T-cells = assay: Chemotaxis assay; type: cell-based, human; details: 0.025 to 25 nM in lower chamber, 4 hours, 37° C.
# Protocol: CD3^+ T-cells are isolated from human peripheral blood prepared by leukapheresis (NIH, Department of Transfusion Medicine, Bethesda, Md.) (Chertov et al., J. Biol. Chem. 271:2935-2940, 1996) and suspended in migration medium (RPMI 1640, 0.5% bovine serum albumin, 25 mM HEPES). Inserts coated with collagen IV (Becton Dickinson Labware, Bedford, Mass.) are placed into 24-well culture plates to form upper and lower chambers in each well. Upper chambers are wetted with migration medium, then 500 μl of migration medium with or without ADP-ribosyl-HNP-1, HNP-1, or with HNP-1 with either an R:W substitution or an R:F substitution (0.025 to 25 nM) are added to the lower chamber. Cells are added to the upper chamber and plates are incubated at 37° C. in 5% CO2 for 4 hours. Lymphocytes that migrate to the lower chamber are harvested by centrifugation and counted in a hematocytometer.
# A549 cells [3] = assay: Chromium release assay (defensin cytotoxicity); type: cell-based; details: 1.5 to 24 μM, 18 hours, 37° C., serum-free RPMI; compared with unmodified HNP-1
# Protocol: Chromium-labeled A549 cells (American Type Culture Collection) were incubated (18 hours, 37° C.) in 100 μl of serum-free RPMI (Gibco Fluids Inc., Rockville, Md.) containing HNP-1, ADP-ribosyl-HNP-1, or HNP-1 with either an R:W substitution or an R:F substitution (1.5 to 24 μM) to quantify defensin cytotoxicity. Cytotoxicity is measured as the amount of chromium released from the cells (Panyutich et al., “Human neutrophil defensins and serpins form complexes and inactivate each other,” Am. J. Respir. Cell. Mol. Biol. 12:351-357, 1995).
substance,measurement,setting,value
ADP-ribosylated HNP-1: human neutrophil peptide HNP-1 (alpha defensin) with ADP-ribosylated arginine,effect on the cytotoxic activity of HNP-1,HNP-1,blocks the cytotoxic activity of HNP-1 in a concentration-dependent manner
same,cytotoxicity for E. coli ATCC43827 in the radial diffusion assay,[1],less cytotoxic than unmodified HNP-1
same,IL-8 release,A549 cells [2],significantly higher
same,ability to recruit T cells,CD3^+ T-cells,retain their ability to recruit T cells
same,cytotoxicity for A549 cells (chromium released),A549 cells [3],less cytotoxic than unmodified HNP-1
